In patent publication US20260250737A1, “Engineered Luciferases and Luciferin Substrates” (Monod Bio, Inc., priority 2023, published 2026):
Numbering of substitutions follows the chain as printed. Names and notes keep the numbering of the source.

B1: MBIO-5335: LgLux_4039 variant S2C, R11L, V46I, E54D; SEQ ID NO 2797 (protein)
chain: MCEEQIRQNLLRFYEALDSGDAITAASLFDPGVTITLWDGTTFTSIEEFREWFDSQFSTSKDALREISSLEVRGDTVEVTVRLSFTRNGQKHTVDLLQLFKFV
B2: MBIO-5336: LgLux_4039 variant R11L; SEQ ID NO 2798 (protein)
chain: B1 chain with C2S, I46V, D54E
B3: MBIO-5337: LgLux_4039 variant R11L, D30N; SEQ ID NO 2799 (protein)
chain: B1 chain with C2S, D30N, I46V, D54E
B4: MBIO-5377: computationally generated LgLux, SEQ ID NO 2792 (protein)
chain: MTPEERIADVRAFYAALASGDLEAAKALFDPGVTITLWDGTTFTSVEEFRAWFEEQFKTSKDALREIESIEVDGDTVRVLVRLSFTRNGQKHTVDLLQQFKFI
B5: MBIO-5378: computationally generated LgLux, SEQ ID NO 2793 (protein)
chain: B4 chain with S84T, T86V, N88D, Q90E, K91E, H92K, T93V
B6: MBIO-5379: computationally generated LgLux, SEQ ID NO 2794 (protein)
chain: B4 chain with S84T, T86V, N88D, Q90E, K91E, H92K, T93V, Q99L
B7: MBIO-5380: computationally generated LgLux, SEQ ID NO 2795 (protein)
chain: B4 chain with S84T, T86V, N88D, Q90E, K91E, H92K, T93V, Q99L, I103V
B8: MBIO-5381: computationally generated LgLux, SEQ ID NO 2796 (protein)
chain: MTPEERIANVLAFYAALASGDLEAAKALFNPGVTITLWDGTTFTSVEEFRAWFEEQFKTSKDALREIESIEVDGDTVRVLVRLTFVRDGEEKVVDLLQLFKFV
B9: MBIO-5358: computationally generated LgLux, SEQ ID NO 2774 (protein)
chain: B1 chain with C2S, N9D, D30N, I46V, D54E, L99Q, V103I
B10: MBIO-5360: computationally generated LgLux, SEQ ID NO 2775 (protein)
chain: B8 chain with R6L, E23V, E55T, K92Q
B11: MBIO-5361: computationally generated LgLux, SEQ ID NO 2776 (protein)
chain: B8 chain with R6L, E23V, P31S, T41A, V46I, E48K, E54D, E55T, R87S, K92Q
B12: MBIO-5362: computationally generated LgLux, SEQ ID NO 2777 (protein)
chain: B4 chain with D9N, R11L, K26A, D30N, Q99L, I103V
B13: MBIO-5363: computationally generated LgLux, SEQ ID NO 2778 (protein)
chain: B4 chain with D9N, R11L, D30N, Q99L, I103V
B14: MBIO-5364: computationally generated LgLux, SEQ ID NO 2779 (protein)
chain: B4 chain with D9N, Q99L, I103V
B15: MBIO-5365: computationally generated LgLux, SEQ ID NO 2780 (protein)
chain: MTPEELRQNLLRFYEALDSGDAVAAASLFNPGVTITLWDGTTFTSVEEFREWFETQFKTSKDALREIESLEVDGDTVRVTVRLTFTRDGEEQVVDLLQLFKFV
B16: MBIO-5366: computationally generated LgLux, SEQ ID NO 2781 (protein)
chain: B15 chain with A26K
B17: MBIO-5367: computationally generated LgLux, SEQ ID NO 2782 (protein)
chain: B15 chain with P31S, T41A, V46I, E48K, E54D, R87S
B18: MBIO-5368: computationally generated LgLux, SEQ ID NO 2783 (protein)
chain: B15 chain with A26K, P31S, T41A, V46I, E48K, E54D, R87S
B19: MBIO-5369: computationally generated LgLux, SEQ ID NO 2784 (protein)
chain: B15 chain with L6I, V23E, A26K, T55E, Q92K
B20: MBIO-5370: computationally generated LgLux, SEQ ID NO 2785 (protein)
chain: B15 chain with L6I, L11R, V23E, A26K, N30D, T55E, Q92K
B21: MBIO-5371: computationally generated LgLux, SEQ ID NO 2786 (protein)
chain: B4 chain with R11L, D30N
B22: MBIO-5372: computationally generated LgLux, SEQ ID NO 2787 (protein)
chain: B8 chain with N9D, L99Q, V103I
B23: MBIO-5373: computationally generated LgLux, SEQ ID NO 2788 (protein)
chain: B8 chain with K26A
B24: MBIO-5374: computationally generated LgLux, SEQ ID NO 2789 (protein)
chain: B8 chain with L11R, K26A, N30D
B25: MBIO-5375: computationally generated LgLux, SEQ ID NO 2790 (protein)
chain: B4 chain with Q99L, I103V
B26: MBIO-5376: computationally generated LgLux, SEQ ID NO 2791 (protein)
chain: B4 chain with Q99L

Experiments:
[1] = tested on: construct containing Small Lux (SmLux), Large Lux (LgLux), FKBP and FRB; test: LuxSit split optimization: SmLux-LgLux-FKBP-FRB construct on the surface of yeast, rapamycin-induced signal; type: biochemical; conditions: Table 19, LgLux variants, 50 uM substrate 1c; for Fold change upon Rap addition: 20 uM Rapamycin
Experimental: To optimize the function of the LuxSit Splits, a construct containing Small Lux (SmLux), Large Lux (LgLux) and the proteins that bind the molecule Rapamycin (FKBP and FRB), connected by GS linkers, was expressed on the surface of yeast. When 50 uM of substrate 1c is added to yeast expressing this construct, a baseline signal is observed due to SmLux and LgLux reconstitution. When 20 uM of Rapamycin is added, SmLux and LgLux are brought closer to each other by FKBP and FRB, enhancing their reconstitution. As a result, an increase in signal is observed.
Libraries of SmLux and LgLux were assembled and tested independently to identify variants with lower baseline and higher fold change.

SmLux = test: Computationally generated LgLux variants expressed in E. coli, tested in lysates with SmLux and substrate 1c; type: biochemical; conditions: for Fold change upon SmLux peptide addition: Table 22, 20 uM SmLux, 50 uM substrate 1c; for Baseline Signal (Normalized by expression): Table 22, 50 uM substrate 1c
Experimental: LgLux sequences were designed computationally, and their activity measured as depicted schematically in FIG. 45.
A library of the computationally generated LgLux variants were expressed in E. coli and tested in lysates. 20 uM of SmLux and 50 uM of substrate 1c was used for the screening.
LgLux_4039 sequence is as set forth in SEQ ID NO:2773. MBIO-5103 through MBIO-5124, MBIO-5261 through MBIO-5295, MBIO-5101, and MBIO-5102 (SEQ ID NO:2815-SEQ ID NO:2873, respectively) are computationally generated LgLux. The sequences and activity of these LgLux are shown below in Table 21.
MBIO-5358 and MBIO-5360 through MBIO-5381 (SEQ ID NO:2774-SEQ ID NO:2796, respectively) are computationally generated LgLux.

Molecule | Baseline Signal (Normalized by expression) [1] | Fold change upon Rap addition [1] | Fold change upon SmLux peptide addition (SmLux) | Baseline Signal (Normalized by expression) (SmLux)
B1 | 23769.5 | 1.9 |  | 
B2 | 16379.8 | 2.1 |  | 
B3 | 14853.7 | 2.1 |  | 
B4 |  |  | 205.44 | 324.4
B5 |  |  | 85.83 | 197
B6 |  |  | 176.25 | 338.4
B7 |  |  | 157.38 | 322.6
B8 |  |  | 22.28 | 158.6
B9 |  |  | 243.66 | 440.6
B10 |  |  | 3.64 | 150.2
B11 |  |  | 5.17 | 156.4
B12 |  |  | 27.24 | 906.4
B13 |  |  | 32.23 | 339.2
B14 |  |  | 172.59 | 376.8
B15 |  |  | 359.8 | 1452.6
B16 |  |  | 32.61 | 931.2
B17 |  |  | 6.08 | 231.6
B18 |  |  | 4.95 | 366.8
B19 |  |  | 289.49 | 760
B20 |  |  | 390.25 | 4567
B21 |  |  | 48.58 | 234.6
B22 |  |  | 20.86 | 210.6
B23 |  |  | 151.01 | 388.2
B24 |  |  | 240.47 | 796
B25 |  |  | 98.41 | 207.6
B26 |  |  | 245.29 | 409.4
